Measured values published in US20100234287A1, “Targeting Bacterial Suicide Pathways for the Development of Novel Antibiotics” (UNIVERSITY OF MEDICINE AND DENTISTRY OF NEW JERSEY, priority 2006, published 2010).
d = 2'-deoxy (DNA); r = 2'-OH (RNA)

Experiments:
wild type yeast cells = assay type: cell-based
MazF = MazF (Escherichia coli, UniProt P0A850+P0AE70)
Protocol: The reaction was carried out as described in the text. Fluorescence was measured at 635 nm with excitation at 550 nm.
In a pilot experiment, we synthesized a small amount of CBS-1 and performed the cleavage reaction with use of purified MazF. The MIase reaction was carried out as follows; 5 μl (5×) MazF buffer (50 mM Tris-HCl, pH 7.8), 10 μl distilled water and 5 μl of CBS-1 solution (2 pmol/μl) were mixed and the mixture was preincubated at 37° C. The reaction was started by adding different concentrations of MazF (5 μl) (see FIG. 5). The excitation and emission wavelengths used were 550 and 635 nm, respectively.
MazF used in this reaction is fused to the trigger factor (a cold-shock molecular chaperone used for high expression of MazF).

[1] = molecular target: T1, MazF, His-tagged at the C-terminal end (E. coli K12, UniProt P0AE70 1-111); assay: Ni-NTA purification of the complex via the His-tagged toxin
T1 construct: not shown: C-terminal His tag from pET21
T1 sequence (looked up): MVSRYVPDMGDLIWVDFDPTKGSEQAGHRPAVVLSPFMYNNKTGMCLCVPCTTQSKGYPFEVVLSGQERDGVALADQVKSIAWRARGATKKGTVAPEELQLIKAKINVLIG

[2] = molecular target: T2, HipA, His-tagged at the C-terminal end (E. coli K12, UniProt P23874 1-440); assay: as above
T2 construct: not shown: C-terminal His tag from pET21
T2 sequence (looked up): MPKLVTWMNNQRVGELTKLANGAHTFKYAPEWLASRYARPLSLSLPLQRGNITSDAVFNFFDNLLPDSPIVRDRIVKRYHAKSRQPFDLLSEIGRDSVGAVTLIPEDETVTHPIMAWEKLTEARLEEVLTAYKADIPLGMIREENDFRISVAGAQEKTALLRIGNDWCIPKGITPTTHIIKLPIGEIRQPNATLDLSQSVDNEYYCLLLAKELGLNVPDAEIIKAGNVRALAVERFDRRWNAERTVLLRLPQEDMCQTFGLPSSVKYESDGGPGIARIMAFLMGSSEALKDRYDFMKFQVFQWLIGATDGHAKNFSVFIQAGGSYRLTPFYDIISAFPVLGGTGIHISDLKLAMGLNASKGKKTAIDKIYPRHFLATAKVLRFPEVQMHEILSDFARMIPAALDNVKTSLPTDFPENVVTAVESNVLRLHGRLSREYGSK

YdcE = molecular target: T3, YdcE (B. subtilis, UniProt P96622 1-116); assay: purification of the toxin-antitoxin complex
T3 construct: also called MazF homologue from B. subtilis
T3 sequence (looked up): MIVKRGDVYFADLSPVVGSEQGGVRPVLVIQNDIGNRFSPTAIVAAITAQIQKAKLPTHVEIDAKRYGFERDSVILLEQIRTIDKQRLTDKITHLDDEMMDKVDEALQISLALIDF

E. coli cells [3] = assay type: cell-based; settings: arabinose-inducible pBAD vector
lpp mRNA = assay type: cell-based, E. coli
[4] = test system: translation initiation complex; assay: Toeprinting assay on a translation initiation complex (mazG mRNA fragment, 70S ribosomes); assay type: biochemical, E. coli; settings: only in the presence of ribosomes
ompA and ompF mRNAs = assay type: cell-based, E. coli; settings: 2-h induction of YoeB with arabinose
[5] = molecular target: T4, YafQ with His6 tag at the carboxy terminus (E. coli K12, UniProt Q47149 1-92); assay: affinity chromatography, co-purification via His6-tagged YafQ
T4 construct: not shown: C-terminal His6 tag from the pET vector
T4 sequence (looked up): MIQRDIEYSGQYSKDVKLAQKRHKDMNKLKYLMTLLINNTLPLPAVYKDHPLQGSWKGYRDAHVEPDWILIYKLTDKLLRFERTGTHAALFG

E. coli cells [6] = settings: MazF induction (Zhang et al., 2003b); cited from earlier work
[7] = test system: cellular mRNAs (ompA, tufA, ompF) and polysomes; assay: Northern blot and polysome pattern after Doc induction (pBAD, arabinose)
Protocol: Northern blot analysis after Doc induction. The doe gene was induced with use of a pBAD vector by the addition of arabinose. At the times after induction indicated on top of the gels, total cellular RNAs were extracted and analyzed by Northern blot for ompA, tufA and ompF mRNAs.
Polysome patterns of cells without (left panels) or with Doc induction (right panels) using cells harboring pBADdoc. Polysome patterns were analyzed as described in FIG. 11 with and without Doc induction by the addition of arabinose. Polysome patterns were analyzed in the presence (upper panels) or in the absence of hygromycin, an antibiotic that blocks translation elongation reaction.

[8] = molecular target: T5, RelE, His-tagged at the C-terminal end (E. coli K12, UniProt P0C077 1-95); assay: Ni-NTA purification of the complex via the His-tagged toxin
T5 construct: not shown: C-terminal His tag from pET21
T5 sequence (looked up): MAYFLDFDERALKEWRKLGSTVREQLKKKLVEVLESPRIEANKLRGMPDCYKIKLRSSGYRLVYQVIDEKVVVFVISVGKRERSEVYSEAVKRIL

E. coli = assay type: cell-based
[9] = molecular target: T6, ChpBK, His-tagged at the C-terminal end (E. coli K12, UniProt P33647 1-116); assay: Ni-NTA purification of the complex via the His-tagged toxin
T6 construct: not shown: C-terminal His tag from pET21
T6 sequence (looked up): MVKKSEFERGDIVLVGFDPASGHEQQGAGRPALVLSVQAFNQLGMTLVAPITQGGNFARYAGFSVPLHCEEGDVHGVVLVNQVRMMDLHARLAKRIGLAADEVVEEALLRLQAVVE

RelE: E. coli toxin, ribosome-associating factor that stimulates ribosomal endo-ribonuclease activity
toxicity / growth inhibition in yeast (wild type yeast cells): prokaryote-specific growth inhibitors

dGdAdTdArUdAdCdAdTdAdTdG [CBS-1]
function as substrate for MazF (MazF; MazF fused to trigger factor, 37° C., pilot experiment): suitable and sensitive substrate

dGdAdTdArUrArCdGdTdAdTdG (GATAUACGTATG; sugars from the 5' end d4 r3 d5, backbone not given here) [CBS-2]
cleavage by MazF (MazF; substrate not yet synthesized): not by MazF

B1: MazE (other, E. coli K12, UniProt P0AE72 1-82, looked up)
chain: MIHSSVKRWGNSPAVRIPATLMQALNLNIDDEVKIDLVDGKLIIEPVRKEPVFTLAELVNDITPENLHENIDWGEPKDKEVW
notes: also called MazE antitoxin
binding result [1]: binds

B2: HipB (other, E. coli K12, UniProt P23873 1-88, looked up)
chain: MMSFQKIYSPTQLANAMKLVRQQNGWTQSELAKKIGIKQATISNFENNPDNTTLTTFFKILQSLELSMTLCDAKNASPESTEQQNLEW
notes: also called HipB antitoxin
binding result [2]: binds

B3: YdcD (other, B. subtilis, UniProt P96621 1-93, looked up)
chain: MSESSARTEMKISLPENLVAELDGVAMREKRSRNELISQAVRAYVSERTTRHNRDLMRRGYMEMAKINLNISSEAHFAECEAETTVERLVSGG
notes: also called YdcD antitoxin
binding result (YdcE): binds

B4: YoeB: E. coli toxin of the YoeB-YefM TA system, 50S ribosome associating protein (protein)
chain: MKLIWSEESWDDYLYWQETDKRIVKKINELIKDTRRTPFEGKGKPEPLKHNLSGFWSRRITEEHRLVYAVTDDSLLIAACRYHY
modifications: left off: small tags and cut ends
notes: E. coli toxin of the YoeB-YefM TA system, 50S ribosome associating protein
toxicity / growth inhibition in yeast (wild type yeast cells): not toxic | time after induction until cellular protein synthesis is almost completely inhibited (E. coli cells [3]): ≤ 5 min | time after induction at which a substantial amount of full-length lpp mRNA is still present (lpp mRNA): more than 1 h | shift of the toeprint band upstream of the normal toeprinting band [4]: 11 bases | position of primer extension block downstream of the initiation codon, ompA mRNA (ompA and ompF mRNAs): 3 bases | position of primer extension block downstream of the initiation codon, ompF mRNA (ompA and ompF mRNAs): 6 bases

B5: DinJ (other, E. coli K12, UniProt Q47150 1-86, looked up)
chain: MAANAFVRARIDEDLKNQAADVLAGMGLTISDLVRITLTKVAREKALPFDLREPNQLTIQSIKNSEAGIDVHKAKDADDLFDKLGI
notes: Co-expressed with YafQ from a pET vector; the His6 tag was added only to YafQ; also called DinJ antitoxin
binding result [5]: binds

B6: MazF: E. coli toxin, sequence-specific (ACA) endoribonuclease, mRNA interferase (protein)
chain: T1 sequence (looked up)
modifications: left off: small tags and cut ends
time after induction until full-length lpp mRNA disappears (lpp mRNA): ≤ 5 min | time after induction until cellular protein synthesis is inhibited (E. coli cells [6]): 15 to 20 min

B7: Doc: toxin of the Doc-Phd TA operon from phage P1 (protein)
chain: MRHISPEELIALHDANISRYGGLPGMSDPGRAEAIIGRVQARVAYEEITDLFEVSATYLVATARGHIFNDANKRTALNSALLFLRRNGVQVFDSPELADLTVGAATGEISVSSVADTLRRLYGSAE
modifications: left off: small tags and cut ends
degradation of cellular mRNAs ([7]; 120 min after induction): not degraded | polysome pattern ([7]; after 2 h induction, without addition of hygromycin): did not change

B8: RelB (other, E. coli K12, UniProt P0C079 1-79, looked up)
chain: MGSINLRIDDELKARSYAALEKMGVTPSEALRLMLEYIADNERLPFKQTLLSDEDAELVEIVKERLRNPKPVRVTLDEL
notes: also called RelB antitoxin
binding result [8]: binds

B9: YafQ: E. coli toxin of the YafQ-DinJ TA system, sequence-specific MIase (protein)
chain: T4 sequence (looked up)
modifications: left off: small tags and cut ends
toxicity / growth inhibition in yeast (wild type yeast cells): growth inhibitor | toxicity / growth inhibition in E. coli (E. coli): growth inhibitor

B10: ChpBI (other, E. coli K12, UniProt P08365 1-83, looked up)
chain: MRITIKRWGNSAGMVIPNIVMKELNLQPGQSVEAQVSNNQLILTPISRRYSLDELLAQCDMNAAELSEQDVWGKSTPAGDEIW
notes: also called ChpBI antitoxin
binding result [9]: binds
